Data on 1 molecule can be found in CN116514981A (JIANGSU QUANXIN BIOMEDICAL CO LTD, dated 2023).

The target in one assay is T1, 人IL-12 (Bio IL-12) (human, UniProt P29459 23-219; P29460 23-328, biotin-labelled (Bio IL-12); sites not stated).
T1 construct: the p35 subunit is supplied from general knowledge
T1 sequence (looked up) 1: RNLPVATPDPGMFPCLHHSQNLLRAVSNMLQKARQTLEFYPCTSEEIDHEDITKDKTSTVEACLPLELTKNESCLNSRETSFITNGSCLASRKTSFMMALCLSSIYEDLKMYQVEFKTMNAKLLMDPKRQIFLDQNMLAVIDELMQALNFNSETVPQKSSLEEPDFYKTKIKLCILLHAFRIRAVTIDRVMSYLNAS
T1 sequence (looked up) 2: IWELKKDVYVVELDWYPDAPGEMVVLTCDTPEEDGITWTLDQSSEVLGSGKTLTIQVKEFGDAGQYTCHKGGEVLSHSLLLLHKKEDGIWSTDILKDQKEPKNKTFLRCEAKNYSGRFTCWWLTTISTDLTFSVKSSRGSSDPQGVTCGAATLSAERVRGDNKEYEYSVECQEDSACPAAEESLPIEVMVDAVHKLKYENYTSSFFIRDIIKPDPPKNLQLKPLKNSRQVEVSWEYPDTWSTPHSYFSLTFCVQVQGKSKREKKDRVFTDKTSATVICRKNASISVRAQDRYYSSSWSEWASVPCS
The experiment in a line: ELISA: Bio IL-12 at 1 μg/ml captured on Neutravidin, antibody in serial dilution. On the technique in general: In an ELISA, binding on a coated surface is turned into a signal by an enzyme label.

Another assay concerns the target T2, 人IL-23 (Bio IL-23) (human, UniProt Q9NPF7 20-189; P29460 23-328, biotin-labelled (Bio IL-23); sites not stated).
T2 construct: also called hIL-23
T2 sequence (looked up) 1: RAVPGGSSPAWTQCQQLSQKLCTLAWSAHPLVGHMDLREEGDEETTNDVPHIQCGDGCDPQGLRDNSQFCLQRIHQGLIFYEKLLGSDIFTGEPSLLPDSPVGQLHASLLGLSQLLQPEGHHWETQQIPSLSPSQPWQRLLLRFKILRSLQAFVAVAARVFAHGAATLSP
T2 sequence (looked up) 2: T1 sequence (looked up) 2
Briefly: ELISA: Bio IL-23 at 1 μg/ml captured on Neutravidin, antibody in serial dilution.

B1: 抗人IL-23P19单克隆抗体(第一抗体) (antibody, V domains shown)
VH: QEQLEESGGGLVKPGGTLTLTCKASGFDFTTYNYMCWVRQAPGKGLEWIACIYTTKTNTWYASWAKGRFTISKTSSTTVTLQMTSLTAADTATYFCARGGWDNLSLWGPGTLVTVSS
VL: AALTQTPASVSAAVGGTVTIKCQSSQSVYSNNYLAWYQQKPGQPPKVLIYAASTLASGVPSRFSGSGSGTQFTLTISGVQCDDAATYYCLGGYDDDAVFGGGTEVVVKG
notes: also called 抗人IL-23第一抗体; 包被抗体
As for B1, the binding result with 人IL-12 (Bio IL-12) is recorded as “no binding”; with 人IL-23 (Bio IL-23), “binds”.
